Here are results for two substances from article PMC7284817.

The target of test [1] is CXC-motif chemokine ligand 12 (CXCL12), membrane-anchored ligand fusion (Cub-GAL4). As to the kind of experiment: two-hybrid; MALAR-Y2H; β-galactosidase (ONPG) assay of diploid cells, lysate incubated 30 min at 30°C, OD405, Miller Units, mean of two clones.
For test [2], the target named is S. mansoni neuropeptide NPP2a, membrane-anchored ligand fusion (linker-WBP1 TMP-Cub-GAL4) (S. mansoni). The description is as above.

Chain of mouse receptor CXCR4, NubG fusion (positive control) (P70658 whole entry, the tested form may be a part): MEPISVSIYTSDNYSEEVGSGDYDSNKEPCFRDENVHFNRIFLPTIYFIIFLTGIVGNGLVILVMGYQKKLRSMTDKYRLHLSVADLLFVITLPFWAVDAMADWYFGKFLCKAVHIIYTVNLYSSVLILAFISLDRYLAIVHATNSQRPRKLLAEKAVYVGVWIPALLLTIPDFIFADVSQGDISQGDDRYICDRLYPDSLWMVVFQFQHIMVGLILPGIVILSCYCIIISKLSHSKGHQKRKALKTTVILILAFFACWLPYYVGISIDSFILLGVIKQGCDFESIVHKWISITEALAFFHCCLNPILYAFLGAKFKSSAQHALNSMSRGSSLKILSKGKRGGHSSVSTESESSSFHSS

In the case of “mouse receptor CXCR4, NubG fusion (positive control)”, the Miller units (β-Gal activity) in test [1] stood at 3.07 Miller units.

With “Schistosoma mansoni G protein-coupled receptor GPCR14 (Smp_203500), fused to NubG”, in test [2], the Miller units (β-Gal activity) is 2.68 Miller units.
